Reference: patent publication US20180094062A1 (Hoffmann-La Roche, published 2018)

Tests used:
[1] = target: T1, HER3 ECD-HRG complex (Heregulin-activated Her-3 ECD) (human, UniProt P21860 20-643); experiment: SPR Biacore 3000, antibody captured, Biacore two-state model, ka1, 25 C; ka1, first step of the two-state fit
T1 construct: receptor-ligand complex made by preincubating HER3 ECD with a five-fold molar excess of Heregulin; also called Heregulin/Her-3 ECD; Heregulin-complexed Her-3 ECD
Experimental: (§1) A CM5 series sensor was mounted into the system and was normalized in HBS-ET buffer (10 mM HEPES pH 7.4, 150 mM NaCl, 3 mM EDTA, 0.005% w/v Tween 20) according to the manufacturer's instructions. The sample buffer was the system buffer supplemented with 1 mg/ml CMD (Carboxymethyldextran). The system operated at 25° C. 10000 RU RAM-Fey (relative units of Fey-fragment Rabbit Anti-Mouse IgG/Jackson Laboratories) were immobilized according to the manufacturer's instructions using EDC/NHS chemistry on all flow cells. The sensor was deactivated using 1M ethanolamine.

[2] = target: T1, HER3 ECD-HRG complex …; experiment: SPR Biacore 3000, antibody captured, Biacore two-state model, kd1, 25 C; kd1, first step of the two-state fit; not the kd2 used for KDapp
Experimental: as §1

[3] = target: T2, recombinant Thermus thermophilus SlyD FKBP-Her3 (TtSlyD-FKBP-Her3); experiment: SPR, antibody captured
T2 construct: expressed in E. coli, the N-terminal methionine can be present or not; also called thermo SlyD-Her3; T.T.SlyD-Her3
T2 chain: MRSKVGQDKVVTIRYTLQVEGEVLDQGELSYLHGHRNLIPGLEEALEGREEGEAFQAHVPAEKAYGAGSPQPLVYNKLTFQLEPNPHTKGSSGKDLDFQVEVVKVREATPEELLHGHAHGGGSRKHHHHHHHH
Experimental: In all assay the test antibodies were captured. The system was under the control of the software version V1.1. The instrument buffer was HBS-EP (10 mM HEPES (pH 7.4), 150 mM NaCl, 1 mM EDTA, 0.05% (w/v) P20). The system operated at 25° C. 30 μg/ml Rabbit polyclonal antibody (RAM IgG, (Rabbit anti Mouse IgG with Fc gamma specificity) GE Healthcare) in 10 mM sodium acetate buffer (pH 4.5) was immobilized using EDC/NHS chemistry according to the manufacturer's instructions on the spots 1, 2, 4 and 5 in the flow cells 1, 2, 3 and 4. The sensor was saturated using 1M ethanolamine. In each flow cell, referenced signals were calculated using spots 1-2 and spots 5-4, spot 3 served as a blanc control. […] The antibody capture level (CL) in response units was monitored. […] Thereafter, the antibody-antigen complex dissociation signal was recorded for 5 min. […] The recorded signal shortly before the end of the injection of the antigen was denoted as binding late (BL) in response units. The recorded signal shortly before the end of the recording of the dissociation is denoted as stability late (SL) in response units. The dissociation rate constants were determined calculated The antibody-antigen complex stability in minutes was calculated with the following formula: […]. The Molar Ratio was calculated with the formula: MW (antibody)/MW (antigen) *BL (antigen)/CL (antibody). […]

[4] = target: T2, recombinant Thermus thermophilus SlyD …; experiment: SPR Biacore T100, antibody captured, 25 C
[5] = target: T3, HER4 ECD-HRG complex (Heregulin-complexed Her-4 ECD) (human, UniProt Q15303 26-651); experiment: SPR Biacore T100, antibody captured, 25 C
T3 construct: Her-4 ECD incubated with a 5-fold molar excess of Heregulin
T3 sequence 1: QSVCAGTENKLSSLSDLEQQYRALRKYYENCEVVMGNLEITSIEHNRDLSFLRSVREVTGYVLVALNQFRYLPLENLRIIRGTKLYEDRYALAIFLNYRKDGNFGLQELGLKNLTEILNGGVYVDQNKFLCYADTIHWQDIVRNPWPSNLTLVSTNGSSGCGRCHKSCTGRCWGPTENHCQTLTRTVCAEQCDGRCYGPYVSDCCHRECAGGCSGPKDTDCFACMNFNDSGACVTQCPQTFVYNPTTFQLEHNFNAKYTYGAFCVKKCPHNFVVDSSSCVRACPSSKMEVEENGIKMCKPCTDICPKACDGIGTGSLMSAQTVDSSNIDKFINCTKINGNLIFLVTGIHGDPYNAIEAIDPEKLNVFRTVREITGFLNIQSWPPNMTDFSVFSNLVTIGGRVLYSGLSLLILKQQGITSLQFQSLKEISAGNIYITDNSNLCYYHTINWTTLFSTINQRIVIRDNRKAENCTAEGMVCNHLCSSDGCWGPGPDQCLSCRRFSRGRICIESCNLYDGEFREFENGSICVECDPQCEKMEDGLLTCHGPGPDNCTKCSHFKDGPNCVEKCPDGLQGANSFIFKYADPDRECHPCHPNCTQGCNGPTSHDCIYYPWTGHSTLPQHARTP
T3 sequence 2: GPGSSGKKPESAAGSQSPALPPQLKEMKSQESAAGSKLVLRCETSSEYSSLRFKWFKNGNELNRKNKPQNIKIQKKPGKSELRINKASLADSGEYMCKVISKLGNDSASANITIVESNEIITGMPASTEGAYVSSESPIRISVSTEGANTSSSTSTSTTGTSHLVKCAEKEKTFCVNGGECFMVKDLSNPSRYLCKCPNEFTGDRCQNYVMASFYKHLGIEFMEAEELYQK

[6] = target: T4, human Heregulin fragment (HRG) (human); experiment: SPR Biacore T100, antibody captured, 25 C
T4 construct: a 44 kDa homodimeric protein, expressed in FreeStyle 293-F cells; also called Heregulin beta (HRG)
T4 chain: T3 sequence 2

[7] = target: T5, TtSlyD-Wildtype; experiment: SPR Biacore T100, antibody captured, 25 C
T5 construct: scaffold without insert; N-terminal methionine can be present or not; also called T.T.SlyD-wt; wild type Thermus thermophilus SlyD protein
T5 chain: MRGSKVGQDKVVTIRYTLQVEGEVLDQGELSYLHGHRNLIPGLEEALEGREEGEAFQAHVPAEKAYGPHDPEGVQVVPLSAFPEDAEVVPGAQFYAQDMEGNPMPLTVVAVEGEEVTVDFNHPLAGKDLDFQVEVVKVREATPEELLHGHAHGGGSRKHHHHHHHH

B1: anti-HER3 antibody M-08-11 (antibody, V domains shown)
VH: QAYLQQSGAELMRPGASVRMSCQASGYTFTSYTIHWLKQTPRQGLEWIGAIYPRNGDFSYNQKFKDKASLTVDTSSSTAYMHLSSLTSEDSAVYFCARTINYGDWFAYWGQGTLVTVSA
VL: DIQMIQSPASLFVSEGETVIITCRASENIYSNLAWYHQKKGKSPQVLVYAAIKLADGVPLRFSGSGSGTQFSLKINSLQSEDFGSYYCQHFWGPPYTFGSGTNLEIK
notes: mouse monoclonal antibody from hybridoma, tested as hybridoma supernatant or as antibody; also called M-011
B1 was tested, and the kon [1] was 45800 M⁻¹ s⁻¹, the koff [2] was 0.0502 s⁻¹ and the “ratio Ka (Thermus thermophilus SlyD FKBP-Her3)/Ka (HER3-ECD)” value [3] was at least 1.5 ratio. For the same binder, the “ratio MR (Thermus thermophilus SlyD FKBP-Her3)/MR (HER3-ECD)” value [3] was at least 2 ratio, the “MR (Molar Ratio)” value [4] was 1.4 and the binding result [5] was “no binding (tested: 90 nM)”. B1: no binding (tested: 90 nM) [6]; no binding (tested: 90 nM) [7].
